One protein from FireProtDB (doi:10.1021/acs.biochem.5b01204) can be followed below.

Values joined by “and” are separate entries in the source; they are usually repeats but may differ in a detail not shown here. Equal values may be shown once.

The conditions of the series: Enterobacteria phage T4, pH 7.4, Sodium Phosphate Buffer, whole UniProt chain shown; for denaturant midpoint (higher = more stable): 25 °C, Urea.

B1: Sliding clamp wild type, P04525 (protein)
chain: MKLSKDTTALLKNFATINSGIMLKSGQFIMTRAVNGTTYAEANISDVIDFDVAIYDLNGFLGILSLVNDDAEISQSEDGNIKIADARSTIFWPAADPSTVVAPNKPIPFPVASAVTEIKAEDLQQLLRVSRGLQIDTIAITVKEGKIVINGFNKVEDSALTRVKYSLTLGDYDGENTFNFIINMANMKMQPGNYKLLLWAKGKQGAAKFEGEHANYVVALEADSTHDF
As for B1, the “denaturant midpoint (higher = more stable)” value by setting is: (CD, transition: 3, reversible: yes) 2.6 M and 5.7 M; (CD) 5.8 M and 2.5 M; (fluorescence, transition: 3, reversible: yes) 2.7 M and 5.7 M; (fluorescence) 5.9 M. Also, the Tm (Thermal, DSC, reversible: no) was determined as 52.3 °C. Further, the “unfolding enthalpy (calorimetric)” value (Thermal, DSC, reversible: no) was determined as 83.6 kcal/mol. Also, for the setting “Thermal, DSC, reversible: no”, the “unfolding enthalpy (van 't Hoff)” value worked out at 259 kcal/mol.
